Measurements reported in the supplement of paper PMC6755084.

B1: minF1; a variant is named by its letters at N, in order (parent)
chain: GAGACCGCAACTGAAAAGTTGTTNNNNAANNNNGGNTNNATTTCTGCACGTAGAAGCAAAAGGC

Variants of: B1
Assay: fraction ligated after 30 min (ligated reads / total reads); higher = more ligase activity
Details: with F1*subA RNA substrate (template-directed ligation), 42 °C
Description: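 Chip-synthesised pool of minF1 ligase ribozyme variants (single and double substitutions, single to quadruple deletions, bulge and P2 designed variants) was transcribed with T7 and reacted as a pool with excess substrate F1*subA for 30 min at 42 C in 50 mM EPPS pH 8.5, 25 mM MgCl2. Ligated and unligated RNAs were separated by PAGE, barcoded by RT and deep sequenced; fraction ligated = ligated reads / total reads, relative activity = FL / FL of wild-type minF1 (0.76); sequencing FL correlated with PAGE (R2 = 0.98). Sequences are the DNA template of the ribozyme.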

Compared with TGAAGGATGTG A29T, TCGAGGATTGA A29T is higher in fraction ligated: 0.00863 for the first, 0.00979 for the second.

First: TCGAGGATGTA A29T
Second: CGAAGGATGTG T23A A29T
The fraction ligated of the first is lower: 0.00472 for the first, 0.0123 for the second.

First: TCGATGAGTGA T23A
Second: ACGAGGTGTGA
The fraction ligated of the first is lower: 0.00204 for the first, 0.00342 for the second.

Compared with AGAAGATGTGA A28T A29G, CGAAGATGTGA T23A A29G is lower in fraction ligated: 0.00743 for the first, 0.00107 for the second.

Compared with CGAAGATGTGA T23A A29T, AGAAGGATGTG T23A A29T is higher in fraction ligated: 0.00299 for the first, 0.00517 for the second.

First: TCGAGGATGTG A29T
Second: TCGATGAGTGA
The fraction ligated of the first is higher: 0.0133 for the first, 0.00207 for the second.

First: TCAGATGGTGA T23A
Second: TCAGATGGGTT G34A G35T T37G
The fraction ligated of the first is higher: 0.0062 for the first, 0.00107 for the second.

Going from ATAATGGATGA to TCGAGGATGTG T23A A29T, the fraction ligated rises from 0.00189 to 0.0128.

First: ACAGTGAGTGA
Second: TGAAGATGTGA T23A A29T
The fraction ligated of the first is higher: 0.00274 for the first, 0.00202 for the second.

First: TGAAGATGTGA T23A A29G
Second: TCAGGGATGTA A29T
The fraction ligated of the first is higher: 0.00128 for the first, 0.000605 for the second.

Compared with TCAGATGGGTT G34T T37G, ACAGGATGTGA is higher in fraction ligated: 0.00104 for the first, 0.00342 for the second.

Going from TCAGTGATGTA to TCAGTGATGTG, the fraction ligated rises from 0.000465 to 0.00561.

Compared with CGAAGATGTGA A28T A29G, ACAGTGGAGTA G34T is higher in fraction ligated: 0.00384 for the first, 0.0155 for the second.

First: ACAGGGATTGA
Second: AGAAGATGTGA T23C A28T A29G
The fraction ligated of the first is lower: 0.00266 for the first, 0.00411 for the second.

Going from ACGATGGTTGA to ATAAGGATTGA A29T, the fraction ligated rises from 0.00307 to 0.00367.

First: ACAGATGGGTT G34T T37G A40G
Second: TCGATGGAGTT T23A G34T T37G A40G
The fraction ligated of the first is lower: 0.00113 for the first, 0.00165 for the second.

Going from CGAAGGTGTGA T23A A29T to TCAGGGATTGA, the fraction ligated rises from 0.000502 to 0.00138.

Compared with TCAGTATGTGA T23A, AGAAGATGTGA A29G is lower in fraction ligated: 0.00284 for the first, 0.00203 for the second.

Compared with AGAAGATGTGA A29T, AGAAGATGTGA T23A A29T is lower in fraction ligated: 0.00448 for the first, 0.00161 for the second.

Compared with AGAAGATGTGA T23A A29G, ACAGATGGGTG G34T is higher in fraction ligated: 0.00362 for the first, 0.00406 for the second.

Compared with ACAGATGGGTG G34A, TCAGATGTGTA T23A is lower in fraction ligated: 0.0045 for the first, 0.00304 for the second.

Going from ATAAGGAGTGA A29T to TGAAGATGTGA A28T A29G, the fraction ligated falls from 0.00469 to 0.00314.

Compared with TCAGATGTGTA, TCAGATGTGTG is higher in fraction ligated: 0.000796 for the first, 0.00413 for the second.

Compared with TCAGATGGGTG T23A G34A, TCAGATGGGTG T23A G34T is lower in fraction ligated: 0.00659 for the first, 0.00324 for the second.

First: TCAGGGATGTA T23A A29T
Second: TCGATGGTGTG T23A
The fraction ligated of the first is higher: 0.00445 for the first, 0.00391 for the second.

First: ACAGTGGTGTA
Second: ACAGTGGTGTG
The fraction ligated of the first is lower: 0.000648 for the first, 0.00543 for the second.

Going from TCAGTGGAGTT G34T T37G A40G to ATAGAGGAGTT G34T T37G A40G, the fraction ligated falls from 0.00151 to 0.00121.

First: TCGATGGTGTG
Second: TCGATGGTGTA
The fraction ligated of the first is higher: 0.00467 for the first, 0.00285 for the second.

Going from TCAGGGATGTA to TCAGGGATGTG, the fraction ligated rises from 0.00309 to 0.00637.

Compared with TCGAGGTGTGA, ACAGGGATTGA A29T is higher in fraction ligated: 0.00212 for the first, 0.00506 for the second.

First: CGAAGATGTGA T23A A28T A29G
Second: ATAGAGATTGA
The fraction ligated of the first is higher: 0.00787 for the first, 0.0019 for the second.

Compared with TCAGATGGGTG G34A, TCAGATGGGTG G34T is lower in fraction ligated: 0.00479 for the first, 0.00277 for the second.

Compared with TCAGGGTGTGA T23A, TCAGTGGATGA is higher in fraction ligated: 0.00148 for the first, 0.00185 for the second.

Compared with TCGAGATGTGA T23A A29G, TCGAGATGTGA T23A A29T is lower in fraction ligated: 0.00586 for the first, 0.00198 for the second.

Compared with TCGATGGAGTA T23A, ATAATGTGTGA is lower in fraction ligated: 0.00851 for the first, 0.00221 for the second.

First: TCGAGGTGTGA T23A
Second: TGAAGGATGTA T23A A29T
The fraction ligated of the first is higher: 0.00322 for the first, 0.00285 for the second.

Compared with TCGAGGATGTA T23A A29T, TCGAGATGTGA is higher in fraction ligated: 0.00462 for the first, 0.0048 for the second.

First: ACGAGATGTGA A29G
Second: ACGAGATGTGA A29T
The fraction ligated of the first is higher: 0.00268 for the first, 0.00193 for the second.

Going from ACAGTGGAGTG G34T to ACGATGGAGTT G34T T37G A40G, the fraction ligated falls from 0.0352 to 0.00103.

First: ACGAGATGTGA
Second: TCAGGGATTGA T23A
The fraction ligated of the first is higher: 0.00357 for the first, 0.000376 for the second.

Going from ATAAGGATGTA to ATAAGGATGTG, the fraction ligated rises from 0.00287 to 0.00567.

Compared with TCGAGGATGTA T23A, ATAGATATTGA is higher in fraction ligated: 0.0024 for the first, 0.00398 for the second.

First: ACAGTGGAGTT G34T T37G
Second: CGAAGGAGTGA T23A A29T
The fraction ligated of the first is lower: 0.00159 for the first, 0.00498 for the second.

First: ACAGGGTGTGA
Second: ACAGTGATTGA
The fraction ligated of the first is higher: 0.00435 for the first, 0.00326 for the second.

Going from TGAAGGATGTA A29T to TGAAGGTGTGA T23A A29T, the fraction ligated falls from 0.00266 to 0.00263.

Going from ACGAGGTGTGA A29T to AGAAGGATTGA T23C A29T, the fraction ligated rises from 0.00316 to 0.00646.

Compared with ACAGTATGTGA, TCAGGGATGTA T23A is lower in fraction ligated: 0.00319 for the first, 0.00201 for the second.

Compared with ATAGAGATGTG, ATAGAGATGTA is lower in fraction ligated: 0.00764 for the first, 0.00327 for the second.

First: ATAGATGAGTA
Second: TCGAGATGTGA A28T A29G
The fraction ligated of the first is lower: 0.00311 for the first, 0.00721 for the second.

Compared with ATAATGGAGTT G34T T37G, TCAGTGGTTGA T23A is higher in fraction ligated: 0.00161 for the first, 0.00216 for the second.

Compared with TCAGGGTGTGA, TCAGGATGTGA A28T A29G is higher in fraction ligated: 0.00203 for the first, 0.00322 for the second.

Compared with TGAAGGATTGA A29T, TCGATATGTGA is lower in fraction ligated: 0.0036 for the first, 0.00214 for the second.

Compared with TCGATGGATGA T23A, TGAAGGAGTGA A29T is lower in fraction ligated: 0.00236 for the first, 0.000652 for the second.

Compared with TCGATGATGTA T23A, TCGATGGTGTA T23A is higher in fraction ligated: 0.00263 for the first, 0.00392 for the second.

Going from AGAAGGATGTG T23C A29T to TCAGTGTGTGA T23A, the fraction ligated falls from 0.00819 to 0.00289.

First: TGAAGGAGTGA T23A A29T
Second: ACAGTGTGTGA
The fraction ligated of the first is higher: 0.00234 for the first, 0.00188 for the second.

First: TCAGTGAGTGA
Second: TCAGATGGGTT T23A G34A T37G
The fraction ligated of the first is higher: 0.00311 for the first, 0.000991 for the second.

Going from AGAAGGATGTG A29T to TCAGTGGAGTA T23A G34T, the fraction ligated rises from 0.00505 to 0.0212.

Compared with TCGAGATGTGA T23A A28T A29G, ATAATGGTTGA is lower in fraction ligated: 0.00546 for the first, 0.00319 for the second.

Going from ATAAGGATGTG A29T to ACGAGGATGTA A29T, the fraction ligated falls from 0.00947 to 0.00647.

Compared with TCAGTGTGTGA, ACAGATGTGTG is higher in fraction ligated: 0.00218 for the first, 0.0127 for the second.

Compared with ACAGATGTGTA, ACAGTGGAGTA is higher in fraction ligated: 0.00227 for the first, 0.00375 for the second.

Going from ACAGTGGAGTG to AGAAGGAGTGA T23C A29T, the fraction ligated falls from 0.00883 to 0.0019.

Going from TCGATGTGTGA to ACAGGGATGTA A29T, the fraction ligated rises from 0.0025 to 0.00654.

First: ACAGGGATGTG A29T
Second: ACAGATGGGTT G34A G35T T37G
The fraction ligated of the first is higher: 0.00794 for the first, 0.000596 for the second.

First: TCAGTGGAGTT T23A G34T T37G
Second: ATAGATATGTA
The fraction ligated of the first is lower: 0.00183 for the first, 0.00365 for the second.

Going from ATAGATATGTG to ATAAGGATGTA A29T, the fraction ligated falls from 0.013 to 0.00345.

Compared with TCAGTGGAGTG T23A G34T, ACAGATGGGTT G34T T37G is lower in fraction ligated: 0.0406 for the first, 0.0016 for the second.

First: TCAGGGTGTGA T23A A29T
Second: ACAGATGGGTT G34A T37G
The fraction ligated of the first is higher: 0.00472 for the first, 0.00125 for the second.

Going from ACAGGGTGTGA A29T to ACAGATGGGTT G34A T37G A40G, the fraction ligated falls from 0.000904 to 0.000615.

First: TCAGGGATGTG A29T
Second: ACAGTGGTTGA
The fraction ligated of the first is higher: 0.00266 for the first, 0.00127 for the second.

Compared with TCGAGGAGTGA T23A, TGAAGATGTGA A29G is lower in fraction ligated: 0.00431 for the first, 0.00286 for the second.

First: TGAAGATGTGA A29T
Second: ACGATGGAGTG G34T
The fraction ligated of the first is lower: 0.00283 for the first, 0.156 for the second.

Compared with TCAGGGATTGA A29T, ACGAGGATGTA is higher in fraction ligated: 0.00182 for the first, 0.00292 for the second.

Compared with ACGAGGATGTG, TCGATGGAGTG T23A is higher in fraction ligated: 0.00917 for the first, 0.02 for the second.

Compared with ATAAGATGTGA A28T A29G, ACGATGGAGTA G34T is higher in fraction ligated: 0.0107 for the first, 0.0869 for the second.

Going from TCAGTGATTGA T23A to TCAGTGGAGTT T23A G34T T37G A40G, the fraction ligated falls from 0.00266 to 0.000501.

Going from CGAAGGATTGA T23A A29T to TCAGTATGTGA, the fraction ligated falls from 0.0076 to 0.00458.

First: ATAGAGGTTGA
Second: ACGATGGTGTG
The fraction ligated of the first is lower: 0.00247 for the first, 0.00433 for the second.

Compared with ACGATGGTGTA, TCAGTGAGTGA T23A is higher in fraction ligated: 0.00204 for the first, 0.0046 for the second.

Compared with TCAGGATGTGA, ACGAGGAGTGA A29T is higher in fraction ligated: 0.00269 for the first, 0.00454 for the second.

Compared with ACAGTGGATGA, CGAAGGATGTA T23A A29T is higher in fraction ligated: 0.00257 for the first, 0.0054 for the second.

Compared with ACAGATGTTGA, ATAAGATGTGA A29T is lower in fraction ligated: 0.00338 for the first, 0.00321 for the second.

Variant ATAAGATGTGA A29G has a fraction ligated of 0.00765.
